Assay results taken from PMC6262395, “A Rhodococcal Transcriptional Regulatory Mechanism Detects the Common Lactone Ring of AHL Quorum-Sensing Signals and Triggers the Quorum-Quenching Response” (Frontiers in Microbiology, 2018).

Experiments:
QsdR = target: T1, QsdR (Rhodococcus erythropolis, UniProt A0A0C2W9F0); test: EMSA, release of QsdR from biotin-labelled qsdR-qsdA intergenic DNA; details: ligand/QsdR molecule ratio 0.1 to 100; 2 μg His-tagged QsdR, 0.4 ng DNA; effector that relieves DNA binding
T1 construct: gene I3517_23075; full-length qsdR ORF in pET19, His-tagged (tag kept), expressed in E. coli BL21(DE3), Ni-NTA; 186 residues, asymmetric dimer
T1 sequence (A0A0C2W9F0 1-186): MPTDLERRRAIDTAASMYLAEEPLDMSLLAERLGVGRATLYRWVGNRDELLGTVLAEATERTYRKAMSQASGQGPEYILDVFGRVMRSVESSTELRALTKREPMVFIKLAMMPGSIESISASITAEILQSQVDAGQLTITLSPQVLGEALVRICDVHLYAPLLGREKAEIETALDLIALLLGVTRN

[1] = target: T2, QsdR (TetR-family repressor) (Rhodococcus erythropolis R138) (UniProt A0A0C2W9F0); test: EMSA; details: LightShift Chemiluminescent EMSA Kit (Thermo Scientific) as per manufacturer, 20 ul reaction; buffer, salt, pH and temperature not stated
T2 sequence: T1 sequence (A0A0C2W9F0 1-186)

[2] = target: T2, QsdR (TetR-family repressor) (Rhodococcus erythropolis R138); test: competition; details: LightShift Chemiluminescent EMSA Kit (Thermo Scientific) as per manufacturer, 20 ul reaction; buffer, salt, pH and temperature not stated

## N[C@H]1CCOC1=O [HSL, homoserine lactone]
QsdR
  EMSA, release of QsdR from biotin-labelled qsdR-qsdA intergenic DNA: Addition of increased amounts of HSL induced a proportional increase in free DNA

## CATTCCTCAAGTGCGCCATCGAAGAACCTGGTCTGACTCCCGGTGTCGAGCGTGTGATGCGAGCGGTCGGTCAGGCGCAGGTCGAAACCGGGGTACCGATCACGGTTCACACGAACCCGCACACGGAATCGGGCCTCGTTGCGCAGAAGGTTCTGGCCGAGGAAGGTGCAGATCTGA (double strand) [qsdA internal fragment (negative control)]
[1]
  binding: no binding

## GGTAGGCATCGGGACATTCTCTCCGGTTGTCCGGTACTGCACAATTTCGGCGGTCGAACAGAGGTGGGCTTCGGGTGGCTCGAGCCTATTGACGAACCAAGCGACGTGAGACACACTAGCTCATTGTCTCATGTTAGTGATGGCGATCACAGTCAGGGGTTCGATCGATGAG (double strand)
[1]
  binding: binds

## GGTAGGCATCGGGACATTCTCTCCGGTTGTCCGGTACTGCACAATTTCGGCGGTCGAACAGAGGTGGGCTTCGGGTGGCTCGAGCCTATTGACGAACCAAGCGACGTGAGACACACTAGCTCATTGTCTCATGTTAGTGATGGCGATCACAGTCAGGGGTTCGATCGATGAG (double strand) [unlabeled qsdR-qsdA intergenic competitor]
[2]
  binding: binds
